Measured values reported in the supplement of paper PMC9112550, “Optimization of the antimicrobial peptide Bac7 by deep mutational scanning” (BMC Biology, 2022).

System: Escherichia coli TOP10
Assay: shrunken log2 fold change of peptide-encoding DNA abundance (4.5 h post-induction vs induction); higher = less antimicrobial activity (less host growth inhibition)
Conditions: time post-induction: 4.5 h; library: site-saturation at positions 5, 18, 19, 20
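Further: peptides expressed intracellularly from a pBAD plasmid library in pooled LB shake-flask culture, induced with 0.3% L-arabinose, DNA abundance read by NGS, three biological replicates, DESeq2 with apeglm shrinkage.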

Sequence | shrunken log2 fold change
RRIRDRPPRLPRPRPRPFTIPRP | -0.0247
RRIRDRPPRLPRPRPRPFTNPRP | -0.0104
RRIRDRPPRLPRPRPRPFTWPRP | -0.12
RRIRDRPPRLPRPRPRPFVDPRP | 0.063
RRIRDRPPRLPRPRPRPFVKPRP | -0.1
RRIRDRPPRLPRPRPRPFVVPRP | -0.266
RRIRDRPPRLPRPRPRPFWQPRP | 0.0546
RRIRDRPPRLPRPRPRPFYEPRP | -0.262
RRIRDRPPRLPRPRPRPGAEPRP | 1.08
RRIRDRPPRLPRPRPRPGAGPRP | 0.914
RRIRDRPPRLPRPRPRPGAQPRP | 1.02
RRIRDRPPRLPRPRPRPGCEPRP | 0.852
RRIRDRPPRLPRPRPRPGDEPRP | 0.0587
RRIRDRPPRLPRPRPRPGDWPRP | 0.92
RRIRDRPPRLPRPRPRPGEPPRP | 0.613
RRIRDRPPRLPRPRPRPGFTPRP | 0.125
RRIRDRPPRLPRPRPRPGGVPRP | 0.434
RRIRDRPPRLPRPRPRPGITPRP | 0.297
RRIRDRPPRLPRPRPRPGIYPRP | -0.15
RRIRDRPPRLPRPRPRPGKWPRP | -0.00965
RRIRDRPPRLPRPRPRPGLFPRP | 0.949
RRIRDRPPRLPRPRPRPGLKPRP | -0.0696
RRIRDRPPRLPRPRPRPGMRPRP | 1.02
RRIRDRPPRLPRPRPRPGMTPRP | 0.0654
RRIRDRPPRLPRPRPRPGMVPRP | 0.548
RRIRDRPPRLPRPRPRPGPRPRP | 0.787
RRIRDRPPRLPRPRPRPGRPPRP | 0.136

Sequence | shrunken log2 fold change
RRIRDRPPRLPRPRPRPGRTPRP | -0.0421
RRIRDRPPRLPRPRPRPGTDPRP | 0.341
RRIRDRPPRLPRPRPRPGTSPRP | -0.0025
RRIRDRPPRLPRPRPRPGVLPRP | -0.0992
RRIRDRPPRLPRPRPRPGYIPRP | -0.304
RRIRDRPPRLPRPRPRPGYRPRP | 0.000964
RRIRDRPPRLPRPRPRPGYVPRP | -0.153
RRIRDRPPRLPRPRPRPHAHPRP | 0.0605
RRIRDRPPRLPRPRPRPHASPRP | 0.178
RRIRDRPPRLPRPRPRPHCQPRP | -0.146
RRIRDRPPRLPRPRPRPHCYPRP | -0.106
RRIRDRPPRLPRPRPRPHDDPRP | 0.014
RRIRDRPPRLPRPRPRPHDFPRP | -0.00663
RRIRDRPPRLPRPRPRPHDHPRP | 0.00042
RRIRDRPPRLPRPRPRPHDYPRP | -0.0787
RRIRDRPPRLPRPRPRPHEFPRP | 0.00812
RRIRDRPPRLPRPRPRPHEQPRP | -0.0062
RRIRDRPPRLPRPRPRPHGVPRP | -0.00965
RRIRDRPPRLPRPRPRPHHQPRP | -0.0302
RRIRDRPPRLPRPRPRPHIAPRP | 0.0931
RRIRDRPPRLPRPRPRPHICPRP | -0.205
RRIRDRPPRLPRPRPRPHIDPRP | -0.0782
RRIRDRPPRLPRPRPRPHKCPRP | -0.372
RRIRDRPPRLPRPRPRPHLVPRP | -0.0562
RRIRDRPPRLPRPRPRPHMKPRP | -0.467
RRIRDRPPRLPRPRPRPHMYPRP | -0.102
RRIRDRPPRLPRPRPRPHPWPRP | 0.114
